Key:
Experiment in all cases: cell-based or functional assay
[1] = molecular target: Notch on primary rat oligodendrocytes and oligodendrocyte precursor cells (rat) (UniProt Q07008)
[2] = molecular target: myc-tagged full-length mouse Notch1 on transfected OLN cells (mouse) (UniProt Q01705)
[3] = molecular target: Notch1 of mouse neural stem cells (NSCs) (mouse) (UniProt Q01705)
Chain of Notch1 of mouse neural stem cells (NSCs) (mouse) (Q01705 19-2531 limits assumed): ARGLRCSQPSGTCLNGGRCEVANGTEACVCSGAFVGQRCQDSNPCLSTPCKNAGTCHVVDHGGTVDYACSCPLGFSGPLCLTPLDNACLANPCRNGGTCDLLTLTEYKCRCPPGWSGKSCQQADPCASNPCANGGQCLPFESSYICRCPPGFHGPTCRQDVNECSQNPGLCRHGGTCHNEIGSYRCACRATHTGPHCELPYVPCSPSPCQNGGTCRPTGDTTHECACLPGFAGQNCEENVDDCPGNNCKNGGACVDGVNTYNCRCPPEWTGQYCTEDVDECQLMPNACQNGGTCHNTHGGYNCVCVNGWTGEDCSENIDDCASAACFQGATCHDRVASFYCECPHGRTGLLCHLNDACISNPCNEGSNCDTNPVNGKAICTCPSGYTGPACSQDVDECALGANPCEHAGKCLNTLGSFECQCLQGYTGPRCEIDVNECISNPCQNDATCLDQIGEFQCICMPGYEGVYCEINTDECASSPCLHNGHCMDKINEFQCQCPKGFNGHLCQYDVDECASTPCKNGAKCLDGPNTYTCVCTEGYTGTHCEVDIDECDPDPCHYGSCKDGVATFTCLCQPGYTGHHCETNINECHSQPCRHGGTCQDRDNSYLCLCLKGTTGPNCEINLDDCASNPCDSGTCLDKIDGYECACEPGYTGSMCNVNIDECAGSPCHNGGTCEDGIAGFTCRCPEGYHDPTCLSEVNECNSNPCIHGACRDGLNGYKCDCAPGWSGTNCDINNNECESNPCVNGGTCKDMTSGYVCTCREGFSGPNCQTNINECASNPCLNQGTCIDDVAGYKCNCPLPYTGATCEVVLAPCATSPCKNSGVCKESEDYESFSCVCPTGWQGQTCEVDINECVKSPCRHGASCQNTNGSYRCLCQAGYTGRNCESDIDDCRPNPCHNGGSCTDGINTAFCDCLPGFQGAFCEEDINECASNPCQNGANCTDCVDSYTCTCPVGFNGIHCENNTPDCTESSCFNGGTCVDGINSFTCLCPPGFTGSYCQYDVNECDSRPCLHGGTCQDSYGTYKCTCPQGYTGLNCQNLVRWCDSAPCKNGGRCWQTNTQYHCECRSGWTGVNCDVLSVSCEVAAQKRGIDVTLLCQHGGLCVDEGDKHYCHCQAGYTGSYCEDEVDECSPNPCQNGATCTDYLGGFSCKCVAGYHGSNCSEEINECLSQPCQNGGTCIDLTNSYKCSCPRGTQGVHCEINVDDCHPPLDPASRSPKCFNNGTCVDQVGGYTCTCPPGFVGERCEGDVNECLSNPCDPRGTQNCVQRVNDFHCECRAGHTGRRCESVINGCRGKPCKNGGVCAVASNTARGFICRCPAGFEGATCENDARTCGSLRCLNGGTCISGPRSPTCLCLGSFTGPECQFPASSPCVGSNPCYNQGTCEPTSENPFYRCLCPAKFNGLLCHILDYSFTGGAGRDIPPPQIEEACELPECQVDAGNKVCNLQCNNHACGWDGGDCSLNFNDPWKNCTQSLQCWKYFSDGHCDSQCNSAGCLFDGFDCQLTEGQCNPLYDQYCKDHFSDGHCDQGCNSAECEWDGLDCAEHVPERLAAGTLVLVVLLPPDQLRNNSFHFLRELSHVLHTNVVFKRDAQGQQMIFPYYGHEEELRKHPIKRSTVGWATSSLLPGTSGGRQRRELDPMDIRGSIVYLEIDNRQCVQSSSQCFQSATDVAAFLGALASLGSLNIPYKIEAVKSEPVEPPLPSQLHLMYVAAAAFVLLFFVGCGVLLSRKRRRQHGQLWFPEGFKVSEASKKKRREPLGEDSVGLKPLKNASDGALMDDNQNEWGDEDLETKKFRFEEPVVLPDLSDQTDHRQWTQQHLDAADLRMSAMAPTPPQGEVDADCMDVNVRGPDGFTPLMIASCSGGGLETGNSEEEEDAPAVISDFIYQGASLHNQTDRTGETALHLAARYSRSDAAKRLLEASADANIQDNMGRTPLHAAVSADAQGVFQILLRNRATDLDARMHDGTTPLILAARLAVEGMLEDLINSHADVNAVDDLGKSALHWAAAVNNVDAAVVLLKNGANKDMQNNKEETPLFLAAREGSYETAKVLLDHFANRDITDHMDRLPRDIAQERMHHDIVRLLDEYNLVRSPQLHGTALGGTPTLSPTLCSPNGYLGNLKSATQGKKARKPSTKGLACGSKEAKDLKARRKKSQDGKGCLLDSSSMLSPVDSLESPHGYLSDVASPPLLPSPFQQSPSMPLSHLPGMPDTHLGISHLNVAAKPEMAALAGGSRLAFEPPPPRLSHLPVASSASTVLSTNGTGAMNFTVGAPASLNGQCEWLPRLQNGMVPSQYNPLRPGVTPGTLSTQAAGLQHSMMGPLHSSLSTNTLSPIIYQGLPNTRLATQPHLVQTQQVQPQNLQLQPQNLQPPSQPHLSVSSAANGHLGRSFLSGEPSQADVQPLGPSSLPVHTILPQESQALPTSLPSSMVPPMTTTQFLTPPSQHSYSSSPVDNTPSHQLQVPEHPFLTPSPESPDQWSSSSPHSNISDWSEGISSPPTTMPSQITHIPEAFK

Chain of Notch on primary rat oligodendrocytes and oligodendrocyte precursor cells (rat) (Q07008 19-2531): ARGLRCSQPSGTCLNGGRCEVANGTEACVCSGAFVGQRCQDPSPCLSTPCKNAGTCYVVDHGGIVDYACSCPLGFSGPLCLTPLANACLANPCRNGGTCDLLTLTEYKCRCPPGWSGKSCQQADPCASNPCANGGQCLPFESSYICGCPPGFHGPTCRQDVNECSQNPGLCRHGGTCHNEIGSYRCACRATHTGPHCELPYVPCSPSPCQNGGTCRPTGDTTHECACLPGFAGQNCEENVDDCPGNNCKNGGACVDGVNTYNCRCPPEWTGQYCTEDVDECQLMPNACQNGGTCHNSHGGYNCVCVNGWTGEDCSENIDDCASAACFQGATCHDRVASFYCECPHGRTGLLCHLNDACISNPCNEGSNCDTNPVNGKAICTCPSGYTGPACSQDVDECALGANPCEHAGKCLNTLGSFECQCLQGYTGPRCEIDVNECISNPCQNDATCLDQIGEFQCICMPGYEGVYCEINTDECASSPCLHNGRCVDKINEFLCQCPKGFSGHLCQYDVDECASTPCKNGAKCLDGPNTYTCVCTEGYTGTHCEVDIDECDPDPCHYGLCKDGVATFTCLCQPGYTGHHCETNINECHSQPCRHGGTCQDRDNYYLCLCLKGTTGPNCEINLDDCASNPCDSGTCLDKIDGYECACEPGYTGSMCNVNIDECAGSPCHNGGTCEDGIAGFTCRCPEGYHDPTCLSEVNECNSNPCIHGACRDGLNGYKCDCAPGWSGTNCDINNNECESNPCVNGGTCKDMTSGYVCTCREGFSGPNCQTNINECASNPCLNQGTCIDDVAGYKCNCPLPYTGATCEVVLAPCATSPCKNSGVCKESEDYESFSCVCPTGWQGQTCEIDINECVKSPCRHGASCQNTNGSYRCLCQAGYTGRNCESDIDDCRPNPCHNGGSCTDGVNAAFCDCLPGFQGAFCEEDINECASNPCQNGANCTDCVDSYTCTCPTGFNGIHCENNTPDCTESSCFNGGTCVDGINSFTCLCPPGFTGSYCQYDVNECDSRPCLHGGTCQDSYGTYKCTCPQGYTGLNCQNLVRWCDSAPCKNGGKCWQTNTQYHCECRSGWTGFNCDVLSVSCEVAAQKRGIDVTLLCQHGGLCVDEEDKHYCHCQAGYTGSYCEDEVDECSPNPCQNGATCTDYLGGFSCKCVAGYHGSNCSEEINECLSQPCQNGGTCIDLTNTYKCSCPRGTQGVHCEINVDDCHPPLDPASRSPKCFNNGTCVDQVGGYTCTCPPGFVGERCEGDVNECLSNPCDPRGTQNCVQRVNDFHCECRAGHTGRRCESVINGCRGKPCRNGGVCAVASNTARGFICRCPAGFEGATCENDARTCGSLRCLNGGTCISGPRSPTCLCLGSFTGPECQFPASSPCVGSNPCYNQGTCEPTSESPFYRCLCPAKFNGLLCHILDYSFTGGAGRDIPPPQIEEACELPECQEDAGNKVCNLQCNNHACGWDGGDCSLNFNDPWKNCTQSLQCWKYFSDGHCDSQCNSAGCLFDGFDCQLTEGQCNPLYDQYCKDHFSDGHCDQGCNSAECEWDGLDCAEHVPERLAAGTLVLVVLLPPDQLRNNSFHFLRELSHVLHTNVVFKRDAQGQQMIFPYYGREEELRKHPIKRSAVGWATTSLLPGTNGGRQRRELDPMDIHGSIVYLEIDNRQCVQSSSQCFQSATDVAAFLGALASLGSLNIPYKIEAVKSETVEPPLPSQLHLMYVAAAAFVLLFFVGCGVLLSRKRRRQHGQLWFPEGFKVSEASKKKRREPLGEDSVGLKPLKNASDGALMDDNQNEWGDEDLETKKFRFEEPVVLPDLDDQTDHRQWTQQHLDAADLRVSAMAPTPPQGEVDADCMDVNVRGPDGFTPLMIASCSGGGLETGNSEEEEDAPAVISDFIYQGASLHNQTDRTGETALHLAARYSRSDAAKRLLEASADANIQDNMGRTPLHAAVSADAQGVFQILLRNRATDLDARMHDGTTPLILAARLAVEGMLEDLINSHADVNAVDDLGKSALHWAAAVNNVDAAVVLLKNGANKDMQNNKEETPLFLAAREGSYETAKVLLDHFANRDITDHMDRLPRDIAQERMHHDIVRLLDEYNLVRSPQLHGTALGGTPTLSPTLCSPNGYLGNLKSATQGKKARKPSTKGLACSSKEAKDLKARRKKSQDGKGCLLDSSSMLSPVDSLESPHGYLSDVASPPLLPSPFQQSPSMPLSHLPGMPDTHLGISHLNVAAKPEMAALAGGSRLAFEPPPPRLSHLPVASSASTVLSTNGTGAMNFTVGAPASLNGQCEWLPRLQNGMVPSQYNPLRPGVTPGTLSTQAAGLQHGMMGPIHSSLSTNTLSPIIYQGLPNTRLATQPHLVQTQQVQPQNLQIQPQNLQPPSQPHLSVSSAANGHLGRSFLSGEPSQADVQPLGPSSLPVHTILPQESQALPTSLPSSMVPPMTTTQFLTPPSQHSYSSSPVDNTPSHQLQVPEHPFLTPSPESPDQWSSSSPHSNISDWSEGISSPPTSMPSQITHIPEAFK
Chain of myc-tagged full-length mouse Notch1 on transfected OLN cells (mouse) (Q01705 19-2531): as the sequence (Q01705 19-2531 limits assumed) above

MAG transcripts, real-time PCR, primary OLs [1]: 24 fold | OPC differentiation into CNPase-positive OLs [1]: 75% | MAG staining intensity [2]: 2.5 fold | OL generation from NSCs, flow cytometry [3]: 2 fold
Substance: NB-3 (recombinant protein, as substrate or soluble; tag not stated at these places) (from UniProt P97528 20-999) (ligand)
